The target of data set [1] is T1, Tetracycline repressor protein (TetR) (UniProt P04483 P04483:1-207). The data set can be described thus: flow; 50 mM Tris pH 8.0, 50 mM KCl, 5 mM MgCl2, room temperature; no significant translation repression. The conditions noted are these: tags: N-terminal T7 tag, C-terminal His6 (pET24a); chain copies: 2 (inferred, TetR dimer); label: 3' fluorescein. The procedure:
(§1) Quantitative affinity measurements of aptamer interactions with TetR were performed as described previously. Brodsky et al, “A microbead-based system for identifying and characterizing RNA-protein interactions by flow cytometry” Mol Cell Proteomics 1:922-929 (2002); and Warren et al, “A novel binding assay to assess specificity of monoclonal antibodies” J Immunol Methods 305:33-38 (2005). Dynabeads TALON® (Invitrogen) (1 μL) were washed with Affinity Binding Buffer (ABB) (BB+10 μg/mL BSA) and centrifuged at 250×g for 2 mins. Beads were resuspended in ABB and incubated with 60 μg of purified His₆-tagged TetR for 1 h at room temperature. TetR-coated beads were washed twice and resuspended in ABB. Beads were counted by microscopy, and 70,000 beads were placed per well in a 96-well microplate. Fluorescein-labeled RNA in ABB was added to the beads. […] The median fluorescence intensities of the samples were plotted against RNA or DNA concentration using GraphPad Prism® 5 (GraphPad Software, Inc.).
(§2) This example presents a data summary of the various constructs tested for TetR-aptamer binding, cell-free translation, and yeast in vivo expression experiments. Translational repression is reported as the luminescence intensity of the uninduced condition relative to the induced condition. The binding of RNA aptamers to TetR was measured by flow cytometry. […]

Data set [2] addresses T1, Tetracycline repressor protein (TetR). As to the kind of experiment: flow; 50 mM Tris pH 8.0, 50 mM KCl, 5 mM MgCl2, room temperature; repression 91% cell-free, 81% yeast. The note with it: tags: N-terminal T7 tag, C-terminal His6 (pET24a); chain copies: 2 (inferred, TetR dimer); label: 3' fluorescein; stem-loop. As to the method:
as §1, §2

Data set [3] shares this target. As to the kind of experiment: flow; binding listed as NS; no translation repression. The note with it: tags: N-terminal T7 tag, C-terminal His6 (pET24a); chain copies: 2 (inferred, TetR dimer); label: 3' fluorescein. As to the method:
as §1, §2

For data set [4] the target is unchanged. The data set can be described thus: flow; 50 mM Tris pH 8.0, 50 mM KCl, 5 mM MgCl2, room temperature; repression NS cell-free, 9% yeast. The note with it: tags: N-terminal T7 tag, C-terminal His6 (pET24a); chain copies: 2 (inferred, TetR dimer); label: 3' fluorescein. As to the method: as §1, §2
Data set [5] has the same target. As to the kind of experiment: flow; IRE does not bind TetR with high affinity; no translation repression. The note with it: tags: N-terminal T7 tag, C-terminal His6 (pET24a); chain copies: 2 (inferred, TetR dimer); hairpin. The procedure: Quantitative affinity measurements of aptamer interactions with TetR were performed as described previously. Brodsky et al, “A microbead-based system for identifying and characterizing RNA-protein interactions by flow cytometry” Mol Cell Proteomics 1:922-929 (2002); and Warren et al, “A novel binding assay to assess specificity of monoclonal antibodies” J Immunol Methods 305:33-38 (2005). Dynabeads TALON® (Invitrogen) (1 μL) were washed with Affinity Binding Buffer (ABB) (BB+10 μg/mL BSA) and centrifuged at 250×g for 2 mins. Beads were resuspended in ABB and incubated with 60 μg of purified His₆-tagged TetR for 1 h at room temperature. TetR-coated beads were washed twice and resuspended in ABB. Beads were counted by microscopy, and 70,000 beads were placed per well in a 96-well microplate. Fluorescein-labeled RNA in ABB was added to the beads. Nonspecific RNA interactions were reduced by adding 10 μg/mL yeast tRNA. The binding reaction proceeded with moderate shaking for 4 h at room temperature. […] The median fluorescence intensities of the samples were plotted against RNA or DNA concentration using GraphPad Prism® 5 (GraphPad Software, Inc.).
Several aptamers, but not the iron-responsive element, bind TetR with high affinity. […] Reporter expression was measured in a rabbit reticulocyte cell-free system or in S. cerevisiae in the presence and absence of the inducer aTc.

Data set [6] shares this target. The data set can be described thus: flow; 50 mM Tris pH 8.0, 50 mM KCl, 5 mM MgCl2, room temperature; repression 56% cell-free, 75% yeast. The conditions noted are these: tags: N-terminal T7 tag, C-terminal His6 (pET24a); chain copies: 2 (inferred, TetR dimer); label: 3' fluorescein. The procedure:
as §1, §2

T1 sequence (P04483 whole entry, one chain of several): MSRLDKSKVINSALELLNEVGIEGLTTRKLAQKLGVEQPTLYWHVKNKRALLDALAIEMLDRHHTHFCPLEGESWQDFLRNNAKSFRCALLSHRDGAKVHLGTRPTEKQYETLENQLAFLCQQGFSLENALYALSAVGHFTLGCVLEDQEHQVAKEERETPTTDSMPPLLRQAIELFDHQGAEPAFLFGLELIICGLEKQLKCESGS

B1: 5-14.7b (ssRNA)
RNA: GGGAGCUGAGAAUAAACGCUCAACAGGAAACAGCAAGACAAACGAUGGGGAGCGUAAGACUGCGAGUGUCGGAUUCGACAUCAGGCCCGGAUCCGGC
The term Kd denotes a measure of binding affinity in units of concentration. Regarding B1, the Kd in data set [1] amounted to 1.44 nM.

B2: 5-1.2 (ssRNA)
RNA: GGAUCCAGGCAGAGAAAGGUCGAUACGGACGGAAUGUGAUGGCCUGGAUCC
Molecule B2 came in with a dissociation constant (Kd) in data set [2] of 1.6 nM.

B3: 5-1.2m2 (ssRNA)
RNA: GGAUCCAGGCAGUGUAAGGUCGAUACGGACGGAAUGUGAUGGCCUGGAUCC
On to B3, for which the binding result in data set [3] is listed as “no binding”.

B4: 5-18.13 (ssRNA)
RNA: GGGAGCUGAGAAUAAACGCUCAAUAGGGAGAGAACUGUGUCAGAAUGUAGUGAACCAGACACGGAGUGGAGUAUUCGACAUCAGGCCCGGAUCCGGC
Regarding B4, in data set [4], the Kd was 0.45 nM.

Turning to CUUAAGCUUCAACAGUGCUUGAACUUAAG (ssRNA) [Iron Responsive Element (IRE)], in data set [5], the binding result is listed as “no binding”.

B5: 5-29.13a (ssRNA)
RNA: GGGAGCUCAGAAUAAACGCUCAACUUGCUGCAGAGGGUCGAGAAUAUGUGUGACACUGCGUCGACGGGUUAAGUUCGACAUCAGGCCCGGAUCCGGC
For B5, binding in data set [1] was characterised by a dissociation constant (Kd) of 2.77 nM.

B6: 5-1.13 (ssRNA)
RNA: GGGAGCUCAGAAUAAACGCUCAACUCCUGUAGUGAAGGCAGAGAAAGGUCGAUACGGACGGAAUGUGAUGGCCUUCGACAUCAGGCCCGGAUCCGGC
In turn, B6 yielded a Kd in data set [6] of 0.37 nM.
